The target in assay [1] is T1, human CD3e 5-26-Fc(knob)-Avi/Fc(hole) (human, UniProt P0DOX5 223-449 = IgG part).
T1 construct: Residues 5-26 of mature CD3e fused to Fc(knob), co-expressed with Fc(hole); biotinylated for the ELISA; also called huCD3e 5-26- huFc
Briefly: ELISA, biotinylated target on streptavidin plate. The method, then: (§1) Binding of anti-CD3 antibodies to human and cynomolgus CD3 proteins and peptides was determined by ELISA. Biotinylated target proteins and peptides were immobilized on a 384-well streptavidin-coated microplate (MaxiSorb; MicroCoat, DE, Cat. No. 11974998/MC1099) in 25 μl/well, in DPBS (PAN Biotech GmbH, DE, Cat. No. P0436500) by incubation over night at 4° C. […] Peptides used were produced with biotin attached via linkers either to the N- or the C-terminus of the peptide. For target binding ELISA N- and C-terminal biotinylated peptides were mixed in a 1:1 ratio for immobilization on microplates (Table 8) and used separately (Table 8). […] Antibodies were detected with peroxidase-linked, species-specific anti-rabbit IgG, (F(ab′)₂ fragment, from donkey, GE, Cat. No. NA 9340) diluted 1:5000 in 1×PBS (w/0.5% BSA, w/0.05% Tween 20) for 1 h at room temperature. Detection antibodies were removed by four washing steps with washing buffer and signal was developed by addition of TMB substrate (TMB solution, Roche). Absorbance was read out after fixed time intervals at […].

Assay [2] has as its target T2, cynomolgus CD3e amino acids 1-22 peptide (1:1 mixture of N- and C-terminally biotinylated variants) (cynomolgus, biotin attached via linker to the N- or the C-terminus (1:1 mixture)).
T2 construct: Linker not described; also called cyCD3e- 1-22 peptide; cynomolgus CD3 peptide-1-22
T2 peptide: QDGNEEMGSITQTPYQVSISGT
Briefly: ELISA, biotinylated target on streptavidin plate. The method, then: as §1

In assay [3] the target is T3, human CD3e-1-26-Fc(knob)-Avi/Fc(hole) (human, UniProt P0DOX5 223-449 = IgG part).
T3 construct: First 26 amino acids of mature CD3e fused to Fc(knob), co-expressed with Fc(hole); biotinylated for the ELISA; also called huCD3e-1-26 huFc
The assay is described as follows: ELISA, biotinylated target on streptavidin plate. Here is the method:
as §1

Assay [4] has as its target T4, human CD3e amino acids 1-22 peptide (1:1 mixture of N- and C-terminally biotinylated variants) (human, biotin attached via linker to the N- or the C-terminus (1:1 mixture)).
T4 construct: Linker not described; also called huCD3e- 1-22 peptide
Briefly: ELISA, biotinylated target on streptavidin plate. Here is the method: as §1

The target in assay [5] is T5, cynomolgus CD3e 5-26-Fc(knob)-Avi/Fc(hole) (cynomolgus, UniProt P0DOX5 223-449 = IgG part).
T5 construct: Residues 5-26 of mature CD3e fused to Fc(knob), co-expressed with Fc(hole); biotinylated for the ELISA; also called cyCD3e 5-26 huFc
Briefly: ELISA, biotinylated target on streptavidin plate. Here is the method: as §1

Assay [6] concerns the target T6, cynomolgus CD3e stalk-Fc(knob)-Avi/CD3d-stalk-Fc(hole) (cynomolgus).
T6 construct: Heterodimer; biotinylated for the ELISA; used in solution in SPR; also called cyCD3ed stalk huFc; cynomolgusCD3e(stalk)Fc-Knob-CD3d(stalk)FcHole
The assay is described as follows: SPR (BIACORE T100), antibody captured by anti-rabbit IgG Fc, antigen in solution, 25 C, 1:1 Langmuir. The method, then:
Around 2000 resonance units (RU) of the capturing system (10 μg/ml goat anti rabbit IgG Fc Fragment specific; Order Code: 111-005-046; Jackson Immuno Research) were coupled on a CM4 chip (GE Healthcare, BR-1005-34) at pH 5.0 by using an amine coupling kit supplied by the GE Healthcare. Running buffer for Immobilization was HBS-N pH 7.4 (10 mM HEPES, 150 mM NaCl, pH 7.4, GE Healthcare, BR-1006-70). For the followed kinetic assay running and dilution buffer was HBS-P pH 7.4 (10 mM HEPES, 150 mM NaCl, 0.05% Surfactant P20, pH 7.4, GE Healthcare, BR-1006-71). The flow cell was set to 25° C.—and the sample block set to 12° C.—and primed with running buffer twice. […] Association was measured by injection of human CD3e(stalk)Fc-Knob-CD3d(stalk)FcHole or cynomolgus CD3e(stalk)Fc-Knob-CD3d(stalk)FcHole in various concentrations in solution for 180 sec at a flow of 30 μl/min starting with 1350 nM, followed by one 1:1.5 dilution and further in 1:3 dilutions. The dissociation phase was monitored for up to 300 sec and triggered by switching from the sample solution to running buffer. The surface was regenerated by washing with two consecutive injections of a Glycine pH 1.7 solution for 60 sec at a flow rate of 10 μl/min. Bulk refractive index differences were corrected by subtracting the response obtained from a goat anti rabbit IgG Fc surface. Blank injections are also subtracted (=double referencing). For calculation of KD and other kinetic parameters the Langmuir 1:1 model was used.

T6 sequence (chain, as listed by the source limits assumed): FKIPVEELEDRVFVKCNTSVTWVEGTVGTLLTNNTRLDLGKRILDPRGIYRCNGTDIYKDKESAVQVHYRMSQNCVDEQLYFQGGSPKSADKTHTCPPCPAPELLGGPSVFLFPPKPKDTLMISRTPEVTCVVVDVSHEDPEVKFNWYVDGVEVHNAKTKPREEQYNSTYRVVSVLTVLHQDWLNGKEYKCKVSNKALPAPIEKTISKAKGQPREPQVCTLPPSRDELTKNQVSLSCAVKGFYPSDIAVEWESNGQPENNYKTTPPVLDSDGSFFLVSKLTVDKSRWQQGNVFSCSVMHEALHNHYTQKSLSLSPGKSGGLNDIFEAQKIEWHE
T4 sequence (peptide, as listed by the source mutant): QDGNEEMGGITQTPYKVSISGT

B1: antibody clone 645 (antibody, V domains shown)
VH: QSLEESGGDLVKPGASLTLTCLASGFSFSGTYWICWVRQAPGKGLEWIGCISTDSGSTYYASWAKGRFTISKTSSTTVTLQMTSLTAADTATNFCARSAYASEGYALWGPGTLVTVSS
VL: AIVMTQTPSSKSVPVGDTVTINCQASESVYNNNYLSWYQQKPGQPPKLLIYYASTLASGVSSRFKGSGSGTQFTLTISDVVCDDAATYYCTGWKSITTDGMGAFGGGTEVVVKG
notes: Rabbit monoclonal; Recombinantly expressed with rabbit gamma and kappa constant regions in HEK293 (captured by anti-rabbit IgG Fc in SPR); also called Mab.645
Take B1: the binding result in assay [1], in assay [2], in assay [3], in assay [4] and in assay [5] was “no binding” throughout. In assay [6], the affinity, expressed as Kd, was 620 nM. Besides, the koff in assay [6] came to 0.013 s⁻¹. This molecule also came in with a kon in assay [6] of 21000 M⁻¹ s⁻¹.

(Values after patent publication US20200325224A1 (Hoffmann-La Roche, published 2020).)
